Data published in US20260356933 (published 2026).
Substitutions are numbered along the chain they refer to.

B1: SIL-3E7 (antibody, V domains shown)
VH: EVQLVESGGGLVQAGGSLRLSCAASARTFSNYALGWFRQVPGKEREFVAGITWSGDNTYYADSVKDRFTISRDNAKNTVWLQMNSLRPEDTAVYICAAEAVLEDKVAVSTMRYEYDYWGQGTQVTVSS
B2: SIL-2D1 (antibody, V domains shown)
VH: EVQLVESGGGSVQPGGSLRLSCAASGFTLADESSGWFRQAPGKEREGVSCISITDGITYYADSVKGRFTISRDNAKNTLYLQMNSLKPEDTAVYYCATGNPYCSGHAGTEYDDWGQGTQVTVSS
B3: SIL-3B7 (antibody, V domains shown)
VH: EVQLVESGGGLVQAGGSLRLSCAASARTFSNYAMGWFRQAPGKEREFVAGISWSGGYTSYADSVKGRFTISRDNAKNTVALEMNSLKPEDTAVYYCAAEGVIDELPIKTMRYEYDYWGQGTQVTVSS
B4: SIL-2E4 (antibody, V domains shown)
VH: EVQLVESGGGLVQPGGSLRLSCAASGSIFDDHAIGWFRQAPGKEREGVSSIMTSDDSTHYADSVKGRFTISRDKAKNTVYLQMNNLKPEDTAVYYCAATDVFGLQYSSFLKSYEYDYWGQGTQVTVSS
B5: SIL-3B6 (antibody, V domains shown)
VH: B4 VH with I70V, N85D
B6: SIL-2D8 (antibody, V domains shown)
VH: EVQLVESGGGLVQAGGSLRLSCTASGHNADTYAMGWFRQAPGKEREFVTGISWTGVGTYIADSVKGRFTISRDNAKNTVYLQMNSLKPEDTAVYRCAAGSDYSDSHYDKSYEYDYWGQGTQVTVSS
B7: SIL-2F5 (antibody, V domains shown)
VH: B6 VH with T23A, H27R, N28A, A40S, K43S, E44R, V56S, I60Y, N74T, R95Y
B8: SIL-2E7 (antibody, V domains shown)
VH: EVQLVESGGGLVQAGGSLRLSCAASGRTFSKNTMGWFRQAPGKEREFVAAISWSVGSTYYGDSVNGRFTISRDDAKNTVYLQMNSLKPEDTAIYYCAADSSHYMLHPELREYDYWGQGTQVTVSS

Target: IL6 (human, UniProt P05231)
Sequence (P05231 30-212): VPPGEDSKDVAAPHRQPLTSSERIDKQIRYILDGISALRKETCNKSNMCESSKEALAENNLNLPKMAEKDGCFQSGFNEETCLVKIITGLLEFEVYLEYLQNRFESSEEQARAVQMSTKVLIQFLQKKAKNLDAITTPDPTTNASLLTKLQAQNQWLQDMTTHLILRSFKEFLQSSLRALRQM
Test: ELISA, apparent

| Kd [µM] | Binder |
| --- | --- |
| > 1 | B1 |
| 0.08 | B2 |
| > 1 | B3 |
| > 1 | B4 |
| 0.02 | B5 |
| 0.005 | B6 |
| 0.001 | B7 |
| 0.002 | B8 |
